Data: PMC6117352, “Multidomain architecture of estrogen receptor reveals interfacial cross-talk between its DNA-binding and ligand-binding domains” (Nature Communications, 2018)

B1: 6-FAM ERE-DNA (dsDNA)
DNA 1: TAGGTCACAGTGACCTGCG
DNA 2: CGCAGGTCACTGTGACCTA
B2: human estrogen receptor alpha multidomain segment containing both DBD and LBD (residues E181–P552), hERα^CDE (domain or fragment, UniProt P03372 181-552, looked up)
chain: ETRYCAVCNDYASGYHYGVWSCEGCKAFFKRSIQGHNDYMCPATNQCTIDKNRRKSCQACRLRKCYEVGMMKGGIRKDRRGGRMLKHKRQRDDGEGRGEVGSAGDMRAANLWPSPLMIKRSKKNSLALSLTADQMVSALLDAEPPILYSEYDPTRPFSEASMMGLLTNLADRELVHMINWAKRVPGFVDLTLHDQVHLLECAWLEILMIGLVWRSMEHPGKLLFAPNLLLDRNQGKCVEGMVEIFDMLLATSSRFRMMNLQGEEFVCLKSIILLNSGVYTFLSSTLKSLEEKDHIHRVLDKITDTLIHLMAKAGLTLQQQHQRLAQLLLILSHIRHMSNKGMEHLYSMKCKNVVPLYDLLLEMLDAHRLHAP
notes: Cloned into pMCSG7 and the His-tag removed with TEV protease; In the assays it carried estradiol (E2) and ERE-DNA; also called hERα^CDE–DNA-E2 complex; protein part of hERα^complex; source: E. coli Rosetta2(DE3)pLysS, expressed in the presence of estradiol, purified (TALON resin, TEV cleavage, Superdex 200)

Columns and labels:
hERαCDE W393A = hERαCDE W393A (Homo sapiens, UniProt P03372 181-552, W393A); assay: fluorescence anisotropy; E2, TIF2 coactivator peptide; 20 nM DNA; FA: 10 mM CHES pH 9.5, 50 mM KCl, 50 mM NaCl, 4 mM MgCl2, 50 mM arginine, 50 mM glutamic acid, 5 mM TCEP, 5% glycerol, 10 uM ZnCl2, 10 uM E2; 20 nM DNA, 10 min; temperature not stated; details: protein: recombinant; tags: His-tag (pMCSG7), removed by TEV; chain copies: 2; label: 5' 6-FAM (strands described as 5'-labeled); blunt, 19 bp as printed (text says 18-bp)
hERαCDE W393A, sequence (P03372 181-552 W393A): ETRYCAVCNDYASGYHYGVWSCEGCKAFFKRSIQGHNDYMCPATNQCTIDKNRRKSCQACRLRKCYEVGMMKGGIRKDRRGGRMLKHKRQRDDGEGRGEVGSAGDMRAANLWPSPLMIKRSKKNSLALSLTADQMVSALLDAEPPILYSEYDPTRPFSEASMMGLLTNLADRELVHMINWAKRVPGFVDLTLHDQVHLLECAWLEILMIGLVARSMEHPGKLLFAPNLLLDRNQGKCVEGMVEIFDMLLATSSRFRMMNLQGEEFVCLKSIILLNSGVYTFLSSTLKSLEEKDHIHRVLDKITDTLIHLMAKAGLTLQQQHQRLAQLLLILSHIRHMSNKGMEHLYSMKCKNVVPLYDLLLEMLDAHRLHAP

hERαCDE Y191H = hERαCDE Y191H (Homo sapiens, UniProt P03372 181-552, Y191H); assay: as above; details: protein: recombinant; tags: His-tag (pMCSG7), removed by TEV; chain copies: 2; label: 5' 6-FAM (strands described as 5'-labeled); blunt, 19 bp as printed (text says 18-bp)
hERαCDE WT = hERαCDE WT (Homo sapiens, UniProt P03372 181-552); assay: fluorescence anisotropy; E2, TIF2 coactivator peptide; 20 nM DNA; apparent Kd; FA: 10 mM CHES pH 9.5, 50 mM KCl, 50 mM NaCl, 4 mM MgCl2, 50 mM arginine, 50 mM glutamic acid, 5 mM TCEP, 5% glycerol, 10 uM ZnCl2, 10 uM E2; 20 nM DNA, 10 min; temperature not stated; details: protein: recombinant; tags: His-tag (pMCSG7), removed by TEV; chain copies: 2; label: 5' 6-FAM (strands described as 5'-labeled); blunt, 19 bp as printed (text says 18-bp)
[1] = target: the molecule itself; assay: SEC-SAXS + hydroxyl radical protein footprinting, docked models scored against both data sets; hERα^CDE eluted from Superdex 200 with E2, ERE–DNA and TIF2 peptide; 10 mM CHES pH 9.5, 50 mM NaCl, 50 mM KCl; footprinting at 2 µM protein, pH 9.5

Binder | Kd (hERαCDE W393A) | Kd (hERαCDE Y191H) | Kd (hERαCDE WT) | binding result [1]
B1 | 10.8 nM | 3.2 nM | 9.2 nM | 
B2 |  |  |  | binds
